The values below come from PMC7825114, “Studying GGDEF Domain in the Act: Minimize Conformational Frustration to Prevent Artefacts” (Life, 2021).

The series concerns the molecule itself. Description: SEC; FPLC (AKTA system), buffer A (Table S1); multiple runs on diluted protein to allow c-di-GMP to dissociate on the column. Background: In gel filtration, larger molecules generally elute earlier.

B1: PleD from C. crescentus (enzyme, UniProt Q9A5I5 1-454, looked up)
chain: MSARILVVDDIEANVRLLEAKLTAEYYEVSTAMDGPTALAMAARDLPDIILLDVMMPGMDGFTVCRKLKDDPTTRHIPVVLITALDGRGDRIQGLESGASDFLTKPIDDVMLFARVRSLTRFKLVIDELRQREASGRRMGVIAGAAARLDGLGGRVLIVDDNERQAQRVAAELGVEHRPVIESDPEKAKISAGGPVDLVIVNAAAKNFDGLRFTAALRSEERTRQLPVLAMVDPDDRGRMVKALEIGVNDILSRPIDPQELSARVKTQIQRKRYTDYLRNNLDHSLELAVTDQLTGLHNRRYMTGQLDSLVKRATLGGDPVSALLIDIDFFKKINDTFGHDIGDEVLREFALRLASNVRAIDLPCRYGGEEFVVIMPDTALADALRIAERIRMHVSGSPFTVAHGREMLNVTISIGVSATAGEGDTPEALLKRADEGVYQAKASGRNAVVGKAA
notes: PleD, diguanylate cyclase of C. crescentus; In the functional assay the protein was also used after treatment with NaF and BeCl2 (beryllium fluoride, mimics phosphorylation); source: E. coli BL21 (DE3), purified (Ni2+-IMAC HisTrap, multiple FPLC runs)
For the protein B1, the stoichiometry N (in general, a count of units in the complex or per binding partner) was determined as 2.
